The results in this text go back to patent US20070154472A1 (published 2007).

[ ]: non-standard residue; d: D form. The star is where a group is joined. Biotin = O=C1N[C@H]2[C@H](CS[C@H]2CCCCC(=O)*)N1; pY = N[C@@H](Cc1ccc(OP(=O)(O)O)cc1)C(=O)O; βAla = NCCC(=O)O

For test [1], the target named is T1, BTK peptide (non-phosphorylated).
T1 construct: also called Tufts peptide
T1 peptide: {Biotin-βAla}-AKKVVALYDYMPMN-OH
As to the kind of experiment: dot blot on P81 phosphocellulose filters. The text has this: (§1) PSG2 is Specific for Sulfotyrosine as Compared to Phosphotyrosine. To compare binding to various peptides, a GPG-290 polypeptide (GPG) or a BTK peptide (BTK) (Tufts peptide) (biotin-βAla-[…]-[OH]) (SEQ ID NO:339), one microliter of 1:3 dilutions of compound was spotted onto P81 phosphocellulose filters (Upstate Cell Signaling #20-134). GPG-290 is a dimeric molecule consisting of the N-terminal 290 amino acids of GPIbα fused to a mutated Fc domain of human IgG1. It contains 3 sulfated tyrosine residues at positions 276, 278, and 279. The BTK peptide is biotin-βAla-[…]-[OH] (SEQ ID NO:339). Phospho-BTK contains 2 phosphorylated tyrosine residues. The starting dilution for GPG-290 was 250 ng/μl and for the BTK peptide the starting dilution was 3 μg/μl. Western Blot analysis was performed as follows: filters were blocked for 1 hour in blocking buffer (TBS+0.1% Tween-20 (TBS/T) and 5% nonfat dry milk). Filters were washed in TBS/T and incubated overnight in primary antibody diluted in TBS/T+0.5% BSA. Washed filters were incubated for 1 hour with secondary antibody diluted in blocking buffer (HRP-mouse anti-human IgG4 to detect PSG-2 and HRP-goat anti-mouse IgG+A+M to detect anti-phospho-tyrosine antibody). HRP signal was detected with the SuperSignal Chemiluminescent Substrate (Pierce) and the filters were exposed to X-ray film.

The target in another test is T2, Phospho-BTK peptide (SMILES …).
T2 peptide: Biotin-[βAla]KKVVAL[pY]D[pY]MPMN-OH
Kind of test: dot blot on P81 phosphocellulose filters.
Source text: as §1

Test [2] addresses T3, unglycosylated and unsulfated synthetic peptide 19.ek (human, biotinylated; no sulfate, no glycan).
T3 construct: also called synthetic peptide lacking sulfated tyrosine
Kind of test: SPR (BIAcore), biotinylated peptide on streptavidin chip. As for the experimental part: Surface plasmon resonance binding analysis. A BIAcore 2000 instrument (BIAcore AB, Uppsala, Sweden) was used to analyze the interactions between the identified antibodies and biotinylated PSGL-1 19.ek.Fc or derived peptides. Binding experiments were performed at 25° C. using streptavidin-coated sensor chips (BIAcore) and HBS-P buffer (20 mM HEPES [pH 7.4], 150 mM NaCl and 0.005% polysorbate 20 v/v) adjusted to 1 mM for both CaCl₂ and MgCl₂. The streptavidin on the sensor surfaces were conditioned with three one-minute injections of a solution containing 1 M NaCl and 25 mM NaOH. The chips were regenerated with 5 μL of 0.1% TFA and equilibrated with running buffer. […] Binding kinetics were analyzed using BIAevaluation software (V2.1; Pharmacia Biosensor, Uppsala, Sweden). The response representing the mass of bound monoclonal antibodies was measured in resonance units (RU). […] Binding kinetics of human anti-PSGL-1 monoclonal antibodies to the immobilized PSGL-1 19.ek.Fc was determined under partial mass transport limitations by triplicate injections at a concentration range (0-100 nM) onto the immobilized biotinlylated PSGL-1 19.ek.Fc peptide at a flow rate of 30 μL/min, following injection for two minutes. Dissociation was monitored for ten minutes at the same flow rate. […]

The target in test [3] is T4, fully sulfated and glycosylated human PSGL-1 19.ek.Fc fusion protein (human, sulfated tyrosines (y in QATEyEyLDyDFL, corresponding to Tyr46, Tyr48 and Tyr51 of mature human PSGL-1); O-linked glycan; biotinylated in the assays).
T4 construct: also called PSGL-19.ek.Fc; PSGL-19.ed.Fc; not shown: human IgG1 Fc as described in Somers et al., Cell 103:467-479 (2000)
T4 chain: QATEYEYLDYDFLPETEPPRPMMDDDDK
As to the kind of experiment: SPR (BIAcore 2000), biotinylated PSGL-1 19.ek.Fc on streptavidin chip, antibody 0-100 nM. How it is done: Surface plasmon resonance binding analysis. A BIAcore 2000 instrument (BIAcore AB, Uppsala, Sweden) was used to analyze the interactions between the identified antibodies and biotinylated PSGL-1 19.ek.Fc or derived peptides. Binding experiments were performed at 25° C. using streptavidin-coated sensor chips (BIAcore) and HBS-P buffer (20 mM HEPES [pH 7.4], 150 mM NaCl and 0.005% polysorbate 20 v/v) adjusted to 1 mM for both CaCl₂ and MgCl₂. The streptavidin on the sensor surfaces were conditioned with three one-minute injections of a solution containing 1 M NaCl and 25 mM NaOH. The chips were regenerated with 5 μL of 0.1% TFA and equilibrated with running buffer. […] Binding kinetics were analyzed using BIAevaluation software (V2.1; Pharmacia Biosensor, Uppsala, Sweden). The response representing the mass of bound monoclonal antibodies was measured in resonance units (RU). […] Binding kinetics of human anti-PSGL-1 monoclonal antibodies to the immobilized PSGL-1 19.ek.Fc was determined under partial mass transport limitations by triplicate injections at a concentration range (0-100 nM) onto the immobilized biotinlylated PSGL-1 19.ek.Fc peptide at a flow rate of 30 μL/min, following injection for two minutes. Dissociation was monitored for ten minutes at the same flow rate.
For orientation: SPR reads the build-up and loss of mass on a sensor chip optically.

B1: PSG2 full-length bivalent antibody (human IgG4, lambda) (antibody, V domains shown)
VH: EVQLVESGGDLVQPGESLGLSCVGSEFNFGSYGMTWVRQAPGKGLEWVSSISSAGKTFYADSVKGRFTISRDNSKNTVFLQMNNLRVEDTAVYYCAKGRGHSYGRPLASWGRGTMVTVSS
VL: QAVLTQPSSLSASPGASASLTCTLRSGIDVGPHRIYWFQQKPGSTPQYLLRYKSDSDTQQGSGVPSRFSGSKDASANAGILLISGLQSEDEADYYCMIWHSSAWVFGGGTKLTVLG
notes: also called P5G2; human monoclonal antibody PSG2
Turning to B1, the binding result in test [1] is “no binding”; with Phospho-BTK peptide it was “no binding”; in test [2], “no binding (tested: 100 nM)”. In test [3], this molecule registered a Ka of approximately 3.2e+10 M⁻¹.

B2: PSG1 full-length bivalent antibody (human IgG4, lambda) (antibody, V domains shown)
VH: QVQLQESGAEVKKPGASVKVSCKSSGYTFTAYYMHWLRQAPGQGLEWMGWINPNSGGTNYAQKFQGRVTLTRDTSISTAYMELNSLTSDDTAMYYCARGGPRVSSRPGIGYSDSWGKGTLVTVSS
VL: QTVVLQEPSLTVSPGGTVTLTCASRIGAVTSGHYANWFQQKPGQAPRALIYRTNNKQSWTPARFSGSLLGDRAALTLSGAQPEDEADYYCLLYYGGSWVFGGGTKLTVLG
notes: also called human monoclonal antibody PSG1
Regarding B2, in test [2], the binding result is “no binding (tested: 100 nM)”. The Ka in test [3] was approximately 7.5e+09 M⁻¹.
